Reference: PMC12708652 (Nature Communications, 2025)

Target: P116 (residues 30–957), recombinant ectodomain of Mycoplasma pneumoniae P116 (Mycoplasma pneumoniae, UniProt P75556)
Assay: cryo-EM structure

Sequence of P116 (residues 30–957), recombinant ectodomain of Mycoplasma pneumoniae P116 (P75556 30-957): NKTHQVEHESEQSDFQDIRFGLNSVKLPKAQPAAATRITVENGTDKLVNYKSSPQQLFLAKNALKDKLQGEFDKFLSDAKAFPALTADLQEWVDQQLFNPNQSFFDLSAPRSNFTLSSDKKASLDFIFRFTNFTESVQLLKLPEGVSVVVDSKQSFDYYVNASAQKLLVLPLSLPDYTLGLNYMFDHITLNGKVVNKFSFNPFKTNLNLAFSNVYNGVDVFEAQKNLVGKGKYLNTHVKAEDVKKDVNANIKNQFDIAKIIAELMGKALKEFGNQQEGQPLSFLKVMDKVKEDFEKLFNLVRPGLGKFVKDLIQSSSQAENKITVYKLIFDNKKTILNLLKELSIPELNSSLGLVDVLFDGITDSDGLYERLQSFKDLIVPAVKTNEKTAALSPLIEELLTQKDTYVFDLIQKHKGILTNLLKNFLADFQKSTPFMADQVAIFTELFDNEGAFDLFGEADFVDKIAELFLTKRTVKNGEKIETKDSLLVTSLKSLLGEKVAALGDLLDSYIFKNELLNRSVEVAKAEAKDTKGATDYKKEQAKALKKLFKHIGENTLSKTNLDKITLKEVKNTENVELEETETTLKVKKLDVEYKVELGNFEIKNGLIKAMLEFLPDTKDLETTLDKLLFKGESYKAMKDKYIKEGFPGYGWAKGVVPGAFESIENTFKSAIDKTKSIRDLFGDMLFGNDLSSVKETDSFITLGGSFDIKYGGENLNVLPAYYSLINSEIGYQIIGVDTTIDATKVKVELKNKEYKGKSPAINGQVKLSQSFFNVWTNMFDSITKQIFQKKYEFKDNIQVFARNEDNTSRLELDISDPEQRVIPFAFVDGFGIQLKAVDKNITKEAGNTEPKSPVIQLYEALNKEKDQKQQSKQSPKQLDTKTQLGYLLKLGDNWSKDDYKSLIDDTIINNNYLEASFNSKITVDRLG

B1: monoclonal antibody (mAb) 3G9 against P116 (antibody, V domains shown)
VH: QVQLQQPGAELVKPGASVKLSCKASGYSFITYWMRWVRQRPGQGLEWIGQINPSNGHTNYDEKFKDRATLTVDKSSTTAYLQLSSLTSDDSAVYFCARSWEAMDYWGQGTSVTVSS
VL: DIVLTQSPATLSVTPGDSVSLSCRASQGISNNLHWYQQKSHESPRLLIKYASQSFSGIPSRFSGSGSGTVFTLTINSVETEDFGVYFCQQSYSWPIFTFGSGTNLQIK
B1: binds.
